The results in this text go back to PMC10397807, “Automated simulation-based membrane protein refinement into cryo-EM data” (Biophysical Journal, 2023).

The data set concerns the molecule itself. In words: cryo-EM structure; single-particle reconstruction of maltoporin solubilized in DDM, C3 symmetry imposed, 3.0 Å.

B1: maltoporin (natural protein, E. coli (endogenous in C43(DE3)), UniProt P02943 26-446, looked up)
chain: VDFHGYARSGIGWTGSGGEQQCFQTTGAQSKYRLGNECETYAELKLGQEVWKEGDKSFYFDTNVAYSVAQQNDWEATDPAFREANVQGKNLIEWLPGSTIWAGKRFYQRHDVHMIDFYYWDISGPGAGLENIDVGFGKLSLAATRSSEAGGSSSFASNNIYDYTNETANDVFDVRLAQMEINPGGTLELGVDYGRANLRDNYRLVDGASKDGWLFTAEHTQSVLKGFNKFVVQYATDSMTSQGKGLSQGSGVAFDNEKFAYNINNNGHMLRILDHGAISMGDNWDMMYVGMYQDINWDNDNGTKWWTVGIRPMYKWTPIMSTVMEIGYDNVESQRTGDKNNQYKITLAQQWQAGDSIWSRPAIRVFATYAKWDEKWGYDYTGNADNNANFGKAVPADFNGGSFGRGDSDEWTFGAQMEIWW
notes: maltoporin of Escherichia coli, endogenously expressed; native sample purified from E. coli; model fitted from PDB 1MAL and deposited as PDB 8B7V; source: endogenous, E. coli C43(DE3)
On to B1, for which the binding result is “binds”.
